The text below walks through data of the nanobody polyreactivity screen of Harvey et al. (2022).

A short description of this series: yeast display, Sf9 membrane polyspecificity reagent, FACS + sequencing; frameworks hold sequencing errors. A digest of the protocol:
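A nanobody's polyreactivity label depends on the gate it was sorted from. Yeast display cells were stained with 10% biotinylated, detergent-solubilized Sf9 membrane reagent for 1 hour at 4 °C, enriched on streptavidin microbeads and sorted by FACS. The low and high (top ~1%) gates were set on anti-HA fluorescence for expression and streptavidin fluorescence for reagent binding.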
Turning to “QVQLVESGGGLVQAGGSLRLSCSASGSTFFSYAMGWYRQAPGKERELVATITSGGSTFADSVKWRFTISRDNAKNTVYLQMNSLKPEDTAVYYCNTDVVDCLFYHCECRFNYLGQGTQVTVSS”, the “polyreactivity (PSR sort gate)” value was “low polyreactivity”.
Turning to “QVQLVESGGGLVQAGGSLRLSCSASGSTFGYYAMGWYRQAPGKERELVAAITRSGGSTFYADSVKGRFTISRDNAKNTVYLQMNSLKPEDTAVYYCAATYWPYRPGYYYWGQGTQVTVSS”, the “polyreactivity (PSR sort gate)” value is reported as “high polyreactivity”.
Regarding “QVQLVESGGGLVQAGGSLRLSCSASGSTFSAYVMGWYRQAPGKERKLVAAITRSGVSTYYADSVKGRFTISRDNAKNTVYLQMNSLKPEDTAVYYCNKRVGFLYKYDYWGQGTQVTVSS”, the “polyreactivity (PSR sort gate)” value is “high polyreactivity”.
On to “QVQLVESGGGLVQAGGSLRLSCSASGSTFTAYAMGWSRQAPGKERELVATISDSGGSTYYADSVKGRFTISRDNAKNTVYLQMNSLKPEDTAVYYCAADVYSYFYQVVYTFDYWGQCTQVTVSS”, for which the “polyreactivity (PSR sort gate)” value was “low polyreactivity”.
As to “QVQLVESGGGLVQAGGSLRLSCSASGSTFTWYAMGWYRQATGKERELVADISNGGGSTYYADSVKGRFTISRDNEKNTVYLQINSLKPEDTEVYYCAAESIPYYRYDYWGQGTQVTVSS”, the “polyreactivity (PSR sort gate)” value is “low polyreactivity”.
The result for “QVQLVESGGGLVQAGGSLRLSCSASGYISHYAMGWYRQAPGKERELVAAISRRGGSTYYADSVKGRFTISRDNAKNTVYLQMNSLKPEDTAVYYCNKATSYFTVRGYDYCGQGTQVTVSS” reads “high polyreactivity”; that for “QVQLVESGGGLVQAGGSLRLSCSASGYTFPLYAMGWYRQAPGKERELVADINIGGASTYYADSVKGRFTISRDNAKNTVYLQMNSLKPEDTAVYYCAIQYYDGYFPTFEYDYWGQGTQVTVSS”, “low polyreactivity”.
Then “QVQLVESGGGLVQAGGSLRLSCSASGYTFYLYTMGWYRQAPGTERELVAAISGSGTSTYYADSVKGRFTISRDNAKNTVYLQMNSLKPEDTAVYYCAAEDYSRDVYSYYYWGQGTQVTVSS”, with “low polyreactivity”.
Regarding “QVQLVESGGGLVQAGGSLRLSCSASVRTFYRNSMGWYRQAPGKEREFVAVISVSGGSTYYADSVKGRFTISRDNAKNTVYLQMNSLKPEDTAVYYCAADEYYTFSSFELRRMDYWGQGTQVTVSS”, the “polyreactivity (PSR sort gate)” value is given as “low polyreactivity”.
Consider “QVQLVESGGGLVQAGGSLRLSCSATGLTFRPYAMGWYRQAPGTERELVAGITRGGSTKYADSVKGRFTISRDNAKNTVYLLMISLKPEDTAVYYCAVERGSYSYDRPFYYWGQGTQVTVSS”, for which the “polyreactivity (PSR sort gate)” value is “high polyreactivity”.
Then “QVQLVESGGGLVQAGGSLRLSCSATGSTFTINSMGWYRQAPGKERELVAATSKRGTNTYYADSVKGRFTISRDNAKNTVYLQMNSMKTEDSAVYYCKAPGHRQNGLGDYWGQGTQVTVSS”, with “high polyreactivity”; and “QVQLVESGGGLVQAGGSLRLSCSAYGSILWYNAMGWYRQAPGKERELVAAINRGGSTNYADSVKGRFTISRDNAKNTVYLQMNSLKPEDTAVYYCAADRLLVSAGGVQFDYWGQGTQVTVSS”, with “low polyreactivity”; and “QVQLVESGGGLVQAGGSLRLSCSDSGFTFARYTMGWYRQPPGKESELVAGISRSTGRTYYADSVKGLFTISRDNAKNTVYLQMNSLKPEDTAVYYCAARATRSLSRSMDYWGQGTQVTVSS”, with “high polyreactivity”.
The result for “QVQLVESGGGLVQAGGSLRLSCSSSGLTLYRYAMGWYRQAPGKERELVAGISWGGGSTYYADSVKGRFTISRDNAKNTVFLQMNSLKPEGNAVYYCAAGRLLYIPRYYYWGQGTQVTVSS” reads “high polyreactivity”; that for “QVQLVESGGGLVQAGGSLRLSCTASGSTYVAYAMGLYRQAPGKERELVAAITSSGGRTYYADSVKGRFTISRDNAKNTVYLQMNSLKPEDTAVYYCDAVTHGRYDWGQGTQVTVSS”, “high polyreactivity”.
The result for “QVQLVESGGGLVQAGGSLRLSCVASGRIFARNAMGWYRQAPGKERELVAAISGSGVRTYYADSVKGRFTISRDNAKNTVYLQMNSLKPEDTAVYYCNAVSGGHRSRYGYWGQGTQVTVSS” reads “high polyreactivity”.
“QVQLVESGGGLVQAGGSLRLSCVASGRIFLTYAMGWYRQAPGKERELVAAISYSGASTYYADSVKGRFTISRDNAKNTVYLQMNSLKPEDTSVYYCATERVGTPRMNYWGQGTQVTVSS”: the “polyreactivity (PSR sort gate)” value is “high polyreactivity”.
As to “QVQLVESGGGLVQAGGSLRLSCVASGRIFYNYAMGWYRQAPGNERELVAAISSSGGRTYYADSVKGRFTISRDNAKNTVYLQMNSLKPEDTAVYYCAADFHDASRPYGSWGQGTQVTVSS”, the “polyreactivity (PSR sort gate)” value is “low polyreactivity”.
Then “QVQLVESGGGLVQAGGSLRLSCVASGSILAYYAMGWYRQAPGKERELVAAISRSGGSTYYADSVKRRFTISRDNAKNTVNLQMNSLKPEDTAVYYCAADFRRWQYNTVNEFGYWGQGTQVTVSS”, with “high polyreactivity”; and “QVQLVESGGGLVQAGGSLRLSFAASGFIFDKYAMGWYRQAPGKERELVATITSGGSTYYADSVKGRFTISRDNAKNYVYLQMYSLKREDTADYYCAALDYGYRWYRYYYWGQGSQVTVSS”, with “high polyreactivity”.
The result for “QVQLVESGGGLVQAGGSLRLSFAASGFIFDYYAMGGYRQEPGKDRELVAAISSSGRTSYADSVKGRFTISRDNAKNTVYLQMNSLKPEDTAVYYCNATWRWTRRGYDYWGQGTQVTVSS” reads “low polyreactivity”; that for “QVQLVESGGGLVQAGGSLRLSFAASGFIFYRNTMGWYRQAPGKERELVAGITSGGRTNYADSVKGRFTISRDNAKNTVYLQMNSLKPEYTAVYYCNRVVYTYISTGSRHGRYNYWGQGTQVTVSS”, “high polyreactivity”.
The result for “QVQLVESGGGLVQAGGSLRLSFAASGFIIGRNAMGWYRQAPGKEREMVAAITSGGNTYYADSVKGRFTISRDNAKNTVYLQMNSLKPEDTAVYYCAARRRYPLVDAGYYWGQGTQVTVSS” reads “high polyreactivity”; that for “QVQLVESGGGLVQAGGSLRLSFAASGFTFGWYAMGWYRQAPGKGRELVAAISGGDSRTYADSVKGRFTISRDNAKNTVYLQMNSLKPADTAVYYCNAENRQLYWWTVARSHYGYWGQGTQVTVSS”, “low polyreactivity”; that for “QVQLVESGGGLVQAGGSLRLSFAASGFTFKYYAMGWYRPAPGKERELVAAIRSGGSTYYADSVKGRFTISRDNAKNTVYLQMNSLKPEDTAVYYCNAPAFYRYGLNYWGQGTQVTVSS”, “high polyreactivity”.
As to “QVQLVESGGGLVQAGGSLRLSFAASGFTFVNYAMGWYRQAPGKDRELVAAIRRSGSRTYYADSVKGRFTISRDKAKNTVYLQKNSLKPEDTAVYYCAAVWYSLYGNWGQGNQVTVSS”, the “polyreactivity (PSR sort gate)” value is “low polyreactivity”.
The result for “QVQLVESGGGLVQAGGSLRLSFAASGIIFVGYAMGWYRQAPGKEMELVAAISTSSRTYYADSVKGRFTISRDNAKNTVYLQMNIQKPEDTAVYYCNARGTRWYYRHEYWGQGTQVTVSS” reads “high polyreactivity”; that for “QVQLVESGGGLVQAGGSLRLSFAASGIILGSYAMGWYRQAPGKERELVAGITSGGGTYYADSVKGRFTISRDNAKNTVYLQMNSLKPEDTAVYYCAKLYLHYYRYGYWGQGTQVTVSS”, “low polyreactivity”.
Take “QVQLVESGGGLVQAGGSLRLSFAASGINFEHNSMGWYRQAPGKERELVAVISKYGGRTYYADSVKGRFTISRDNAKNTVYLQMNSLKPEDTAVYYCAKRSPFITWNGISYEEYDYWGQGTQVTVSS”: the “polyreactivity (PSR sort gate)” value is recorded as “low polyreactivity”.
With “QVQLVESGGGLVQAGGSLRLSFAASGITFSLYVMGWYRQAPGKERELVAAISYRGGTTYYADSVKGRFTISRDNAKNTVYLQMNSLKPEDTAVYYCAARGSRDRQEAEYGYWGQGTQVTVSS”, the “polyreactivity (PSR sort gate)” value is “high polyreactivity”.
